Measured values taken from US20200148757A1 (KOREA ADVANCED INSTITUTE OF SCIENCE AND TECHNOLOGY, published 2020).

B1: human P1GF (ligand)
chain: LPAVPPQQWALSAGNGSSEVEVVPFQEVWGRSYCRALERLVDVVSEYPSEVEHMFSPSCVSLLRCTGCCGDENLHCVPVETANVTMQLLKIRSGDRPSYVELTFSQHVRCECRPLREKMKPERCGDAVPRR
notes: also called PlGF; placental growth factor
B2: human VEGF-A (ligand)
chain: APMAEGGGQNHHEVVKFMDVYQRSYCHPIETLVDIFQEYPDEIEYIFKPSCVPLMRCGGCCNDEGLECVPTEESNITMQIMRIKPHQGQHIGEMSFLQHNKCECRPKKDRARQENPCGPCSERRKHLFVQDPQTCKCSCKNTDSRCKARQLELNERTCRCDKPRR
notes: also called hVEGF-A

Experiments:
[1] = target: T1, Cetuximab-VEGF-Grab; assay: BLI (BLItz), biotinylated P1GF on streptavidin biosensor, 1:1 model
T1 construct: Made in Freestyle293F cells and purified on Protein A; also called Cet-Grab; scFv-Cetuximab-VEGF-Grab
Description: (§1) Thereafter, to measure the dissociation rate (koff), each reaction product was allowed to react in a PBS buffer for 2 minutes. The final dissociation constant was calculated as a ratio of koff/kon. Sensorgrams were analyzed with the global fitting function using a 1:1 binding model (grouped by color and Rmax).

[2] = target: T1, Cetuximab-VEGF-Grab; assay: BLI; EGFR ECD pre-bound to Cet-Grab, then P1GF (reverse order); EGFR ECD pre-bound to Cet-Grab
[3] = target: T1, Cetuximab-VEGF-Grab; assay: BLI (BLItz), biotinylated VEGF-A on streptavidin biosensor, 1:1 model
Description: as §1

[4] = target: T1, Cetuximab-VEGF-Grab; assay: BLI; EGFR ECD pre-bound to Cet-Grab, then VEGF-A (reverse order); EGFR ECD pre-bound to Cet-Grab

Binder	Kd [1]	Kd [2]	Kd [3]	Kd [4]
B1	1.59 nM	1.11 nM	–	–
B2	–	–	1.04 nM	1.17 nM
